Patent US20240400670A1 (JIANGSU HENGRUI PHARMACEUTICALS, published 2024)
Changes are numbered by the printed parent chain.

T1: human IL-23 (Sino Biological, CT048-H08H) (human, UniProt Q9NPF7 20-189; P29460 23-328)
T1 construct: also called human IL-23 protein; Human IL-23 p19
T1 sequence (looked up) 1: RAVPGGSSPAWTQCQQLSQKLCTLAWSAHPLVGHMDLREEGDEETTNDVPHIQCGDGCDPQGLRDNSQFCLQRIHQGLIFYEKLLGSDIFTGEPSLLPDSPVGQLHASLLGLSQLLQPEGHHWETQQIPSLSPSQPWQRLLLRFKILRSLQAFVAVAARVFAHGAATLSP
T1 sequence (looked up) 2: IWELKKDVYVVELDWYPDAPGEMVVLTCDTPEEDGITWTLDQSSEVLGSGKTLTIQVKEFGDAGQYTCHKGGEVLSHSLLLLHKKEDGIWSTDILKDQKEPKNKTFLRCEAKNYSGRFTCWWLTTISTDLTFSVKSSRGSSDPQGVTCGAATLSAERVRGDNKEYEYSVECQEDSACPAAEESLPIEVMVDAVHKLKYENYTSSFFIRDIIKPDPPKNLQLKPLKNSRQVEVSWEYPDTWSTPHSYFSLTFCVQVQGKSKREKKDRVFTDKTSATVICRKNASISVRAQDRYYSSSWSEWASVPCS

B1: risankizumab (antibody, human IgG1, kappa, L234A L235A, V domains shown)
VH: QVQLVQSGAEVKKPGSSVKVSCKASGYTFTDQTIHWMRQAPGQGLEWIGYIYPRDDSPKYNENFKGKVTITADKSTSTAYMELSSLRSEDTAVYYCAIPDRSGYAWFIYWGQGTLVTVSS
VL: DIQMTQSPSSLSASVGDRVTITCKASRDVAIAVAWYQQKPGKVPKLLIYWASTRHTGVPSRFSGSGSRTDFTLTISSLQPEDVADYFCHQYSSYPFTFGSGTKLEIKR
notes: control anti-IL-23 antibody; also called control molecule
B2: Hu38-10 (antibody, human IgG1, kappa, L234A L235A, V domains shown)
VH: EFQLVQSGAEVKKPGASVKVSCKASGYSFTDHNMNWVRQAPGQRLEWMGVINPNYGTTTYNQKFKGRVTITVDQSASTAYMELSSLRSEDTAVYYCARRGFAYWGQGTLVTVSS
VL: DIVMTQTPLSLPVTPGEPASISCRSSKSLLYKDGKTYLNWFLQKPGQSPQLLIYLMSTRASGVPDRFSGSGSGTDLTLKISRVEAEDVGVYYCQQIAEYPFTFGSGTKLEIKR
notes: humanized mAb38, IgG1/kappa
B3: Hu38-9 (antibody, human IgG1, kappa, L234A L235A, V domains shown)
VH: B2 VH
VL: B2 VL with F41Y, L76F
notes: humanized mAb38, IgG1/kappa
B4: Hu38-14 (antibody, human IgG1, kappa, L234A L235A, V domains shown)
VH: B2 VH with R44S
VL: B2 VL
notes: humanized mAb38, IgG1/kappa
B5: Hu38-8 (antibody, human IgG1, kappa, L234A L235A, V domains shown)
VH: B2 VH with F2V, Q74T
VL: B2 VL with S57Q
notes: humanized mAb38, IgG1/kappa
B6: Hu38-2 (antibody, human IgG1, kappa, L234A L235A, V domains shown)
VH: B2 VH with S28T, Q74T
VL: B2 VL
notes: humanized mAb38, IgG1/kappa
B7: Hu38-12 (antibody, human IgG1, kappa, L234A L235A, V domains shown)
VH: B2 VH
VL: B2 VL with S57Q
notes: humanized mAb38, IgG1/kappa
B8: Hu38-16 (antibody, human IgG1, kappa, L234A L235A, V domains shown)
VH: B2 VH with R44S
VL: B2 VL with S57Q
notes: humanized mAb38, IgG1/kappa
B9: Hu38-3 (antibody, human IgG1, kappa, L234A L235A, V domains shown)
VH: B2 VH with S28T, Q74T
VL: B2 VL with M4I, K44R
notes: humanized mAb38, IgG1/kappa
B10: Hu38-1 (antibody, human IgG1, kappa, L234A L235A, V domains shown)
VH: B2 VH with S28T, Q74T
VL: B2 VL with F41Y, L76F
notes: humanized mAb38, IgG1/kappa
B11: Hu38-15 (antibody, human IgG1, kappa, L234A L235A, V domains shown)
VH: B2 VH with R44S
VL: B2 VL with M4I, K44R
notes: humanized mAb38, IgG1/kappa
B12: Hu38-13 (antibody, human IgG1, kappa, L234A L235A, V domains shown)
VH: B2 VH with R44S
VL: B2 VL with F41Y, L76F
notes: humanized mAb38, IgG1/kappa
B13: Hu38-5 (antibody, human IgG1, kappa, L234A L235A, V domains shown)
VH: B2 VH with F2V, Q74T
VL: B2 VL with F41Y, L76F
notes: humanized mAb38, IgG1/kappa
B14: Hu38-7 (antibody, human IgG1, kappa, L234A L235A, V domains shown)
VH: B2 VH with F2V, Q74T
VL: B2 VL with M4I, K44R
notes: humanized mAb38, IgG1/kappa
B15: Hu38-6 (antibody, human IgG1, kappa, L234A L235A, V domains shown)
VH: B2 VH with F2V, Q74T
VL: B2 VL
notes: humanized mAb38, IgG1/kappa
B16: Hu38-11 (antibody, human IgG1, kappa, L234A L235A, V domains shown)
VH: B2 VH
VL: B2 VL with M4I, K44R
notes: humanized mAb38, IgG1/kappa
B17: Ch29 (antibody, human IgG1, kappa, L234A L235A, V domains shown)
VH: QVQLKESGPGLVAPSQSLSITCTVSGFSLTSYAISWVRQPPGKGLEWLGVIWTGGGTNYNSGIKSRLTISKDNSKSQVFLNMNSLQTEDTARYYCVREGDYGSYAGAMDYWGQGTSVTVSS
VL: DIVLTQSPASLAVSLGQRATISCRASESVDYYGISSMHWFQQKPGQPPKLLIYRASNLESGIPARFSGSGSRTDFTLTINRVETDDVATYYCQQANKDPYTFGGGTKLEIKR
notes: chimeric: murine variable regions on hIgG1/hkappa; also called chimeric antibody of mAb29

target: T1, human IL-23 (Sino Biological, …); experiment: SPR (Biacore), Protein A capture of sample, 1:1 model
Description: A certain amount of test sample was subjected to affinity capture by a biosensor chip Protein A (GE, 29127556), and then antigens at a series of concentration gradients were allowed to flow on the surface of the chip. The reaction signals were detected in real time by using Biacore (GE, 8 K) to obtain association and dissociation curves. After the dissociation was completed for each cycle, the biochip was washed and regenerated with a 10 mM glycine-hydrochloric acid solution at pH 1.5 (GE, BR-1003-54). Fitting was performed based on the experimental data using BlAevaluation version 4.1 software with a 1:1 model, and affinity values were obtained.

Kd	koff	kon	Binder
65.1 pM	4.91e-05 s⁻¹	754000 M⁻¹ s⁻¹	B1
197 pM	7.07e-05 s⁻¹	358000 M⁻¹ s⁻¹	B2
283 pM	6.68e-05 s⁻¹	236000 M⁻¹ s⁻¹	B3
175 pM	5.45e-05 s⁻¹	312000 M⁻¹ s⁻¹	B4
168 pM	4.75e-05 s⁻¹	282000 M⁻¹ s⁻¹	B5
180 pM	6.05e-05 s⁻¹	337000 M⁻¹ s⁻¹	B6
191 pM	6.12e-05 s⁻¹	321000 M⁻¹ s⁻¹	B7
161 pM	5.49e-05 s⁻¹	341000 M⁻¹ s⁻¹	B8
113 pM	4.44e-05 s⁻¹	393000 M⁻¹ s⁻¹	B9
206 pM	4.56e-05 s⁻¹	222000 M⁻¹ s⁻¹	B10
168 pM	8.3e-05 s⁻¹	494000 M⁻¹ s⁻¹	B11
270 pM	5.56e-05 s⁻¹	206000 M⁻¹ s⁻¹	B12
277 pM	5.82e-05 s⁻¹	210000 M⁻¹ s⁻¹	B13
152 pM	7.41e-05 s⁻¹	486000 M⁻¹ s⁻¹	B14
143 pM	3.91e-05 s⁻¹	273000 M⁻¹ s⁻¹	B15
176 pM	6.15e-05 s⁻¹	349000 M⁻¹ s⁻¹	B16
20.7 pM	8.4e-05 s⁻¹	4.05e+06 M⁻¹ s⁻¹	B17

target: T1, human IL-23 (Sino Biological, …); experiment: cell-based or functional assay

Activity in inhibiting proliferation of BaF3-IL-23R cells (IC50, nM)	Binder
0.175 nM	B17

target: T1, human IL-23 (Sino Biological, …); experiment: cell-based or functional assay; remark: another data set of the same source

Activity in inhibiting proliferation of BaF3-IL-23R cells (IC50, nM)	Binder
0.116 nM	B2
0.198 nM	B3
0.152 nM	B4
0.174 nM	B5
0.138 nM	B6
0.184 nM	B7
0.146 nM	B8
0.174 nM	B9
0.168 nM	B10
0.149 nM	B11
0.187 nM	B12
0.148 nM	B13
0.179 nM	B14
0.136 nM	B15
0.168 nM	B16

target: T1, human IL-23 (Sino Biological, …); experiment: ELISA, sample coated, IL-23 titrated, anti-His-HRP
Description: (§1) The specific procedures are as follows:
The test sample was diluted to 2 μg/mL with a PBS (BasalMedia, B320) buffer at pH 7.4 and added to a 96-well microplate (Coming, 3590) at 100 μL/well. The plate was incubated at 4° C. overnight. After the liquid was discarded, 5 % skim milk (BD, 232100) diluted with PBS was added at 300 μL/well for blocking, and the mixture was incubated at 37° C. for 2 h. After the blocking was completed, the blocking solution was discarded, and the plate was washed 3 times with a PBST buffer (pH 7.4, PBS containing 0.1 % tween-20). […] After the incubation, the plate was washed 3 times with PBST. […] After the plate was washed 3 times with PBST, a TMB chromogenic substrate (KPL, 5120-0077) was added at 100 μL/well, and the mixture was incubated at room temperature for 10⁻¹⁵ min, and then 1 M H₂SO₄ was added at 50 μL/well to terminate the reaction. The absorbance values at 450 nm were taken using a microplate reader. The binding curves of antibodies to antigens were fitted using software, and the EC₅₀ values were calculated.

EC50	Binder
1160 pM	B17

target: T1, human IL-23 (Sino Biological, …); experiment: competition ELISA, blocks IL-23/IL-23R; IL-23R coated, biotin-IL-23 + sample gradient
Description: as §1
The receptor protein was diluted to 2 μg/mL with a PBS (BasalMedia, B320) buffer at pH 7.4 and added to a 96-well microplate (Corning, 3590) at 100 μL/well. The plate was incubated at 4° C. overnight. After the liquid was discarded, 1 % Casein blocking solution (Thermo, 37528) was added at 200 μL/well for blocking, and the plate was incubated at 37° C. for 2 h. After the blocking was complete, the blocking solution was discarded, and the plate was washed 3 times with a PBST buffer (pH 7.4 PBS containing 0.1 % tween-20) for later use. After the biotin-labeled ligand protein at a fixed concentration was mixed with an antibody or fusion protein diluted in a gradient, the mixture was pre-incubated at 37° C. for 30 min and then added to the blocked microplate. The plate was incubated at 37° C. for 1.5 h. After the incubation was complete, the plate was washed 3 times with PBST. Streptavidin-HRP (Invitrogen, 434323, diluted at 1:4000) was added at 100 μL/well, and the plate was incubated at 37° C. for 1 h. The supernatant was removed. After the plate was washed 3 times with PBST, TMB chromogenic substrate (KPL, 5120-0077) was added at 100 μL/well, and the plate was incubated at room temperature for 10⁻¹⁵ min. 1 M H₂SO₄ was added at 50 μL/well to terminate the reaction. The absorbance values at 450 nm were taken using a microplate reader. Curves for the inhibition of binding of the ligands to the receptors were fitted using software, and the IC₅₀ values were calculated.

IC50	Binder
610 pM	B1
496 pM	B3
465 pM	B6
455 pM	B12
228 pM	B13
386 pM	B17
